In patent US20220112249A1 (published 2022):

Biological target: V1.1
Assay: SPR

B1: CFH (fH67) (other)
chain: TLKPCDYPDIKHGGLYHENMRRPYFPVAVGKYYSYYCDEHFETPSGSYWDHIHCTQDGWSPAVPCLRKCYFPYLENGYNQNYGRKFVQGKSIDVACHPGYALPKAQTTVTCMENGWSPTPRCI
Kd: 3.6 nM
